In the supplement of paper PMC10567573:
± gives the standard deviation.

Test: protein stability index of a GFP-peptide fusion (GPS, HEK-293T) (PSI 1-6); higher = more stable
[1] = treatment: DMSO, c terminus: a fixed tail appended
[2] = treatment: MLN4924 1 uM, 8 h, c terminus: a fixed tail appended
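Note: 24-mer peptide tiles fused after GFP, lentivirally expressed, FACS-sorted into six equal bins by GFP/DsRed ratio, decoded by Illumina sequencing, PSI is the read-weighted mean bin number.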

Sequence | protein stability index [1] | protein stability index [2] | protein stability index (treatment: DMSO, c terminus: native) | protein stability index (treatment: MLN4924 1 uM, 8 h, c terminus: native)
KMTLTQVSTWFANARRRLKKENKM [IRX6] | 2.83 ± 0.29 | 3.02 ± 0.23 | – | –
DESAIDFSAYIDSMAAVPTLELCH [CEBPD] | 3.17 ± 0.26 | 3.31 ± 0.17 | – | –
SFSLVKLVLRRQLKNKCCPPPCKF [C22orf31] | 2.29 ± 0.47 | 2.35 ± 0.41 | – | –
DPKEDVFQQNHLFWLQNSSPSSDR [PHTF1] | 4.71 ± 0.18 | 4.49 ± 0.19 | – | –
TIDKQREEMAKSSRASAARVGQLQ [LRRC45] | 4.67 ± 0.14 | 4.73 ± 0.14 | – | –
TSSLAQPGAYYPYERTLGQYQYER [IRX6] | 3.25 ± 0.38 | 3.22 ± 0.21 | – | –
ALVGDEVELPCRISPGKNATGMEV [MOG] | 4.03 ± 0.22 | 4.23 ± 0.26 | – | –
YRPLKQELQGLDYCKPTRLDLLLD [SPSB1] | 2.77 ± 0.29 | 2.6 ± 0.32 | – | –
IWVPIKIGALTYFAQADALKGTLV [ACSBG2] | 2.76 ± 0.71 | 3.08 ± 0.67 | – | –
DMKLIILANRLCLPHLVALTEQYT [RHOBTB2] | 3.8 ± 0.26 | 3.08 ± 1.3 | – | –
SSDSANTTIEDEDAKARKQEIIKT [CAMK2B] | 5.44 ± 0.21 | 5.42 ± 0.082 | – | –
LFLPCLLCYPPAKGCLKLCRRCYD [SPRY1] | 2.36 ± 0.19 | 2.45 ± 0.62 | – | –
HSKLLVSGFWGVARHFNYVGDLMG [DHCR7] | 2.34 ± 0.53 | 2.33 ± 0.44 | – | –
LDVDTAAGGFQQRQGLKYCLPLTF [FBXO3] | 2.42 ± 0.19 | 2.22 ± 0.45 | – | –
IEEACYAQTIPTKDRLEGLLAFKE [AUH] | 3.73 ± 0.46 | 3.55 ± 0.69 | – | –
VTASPPTDLIWKNQNSWGTGEDVK [LMNB1] | 4.36 ± 0.26 | 4.37 ± 0.24 | – | –
TGGQTVVNPWIIIGGVATVVCQPN [SEPHS2] | 2.84 ± 0.76 | 2.62 ± 0.7 | – | –
AVYDGSSSVEDLKAKFCSTVANDV [NETO1] | 4.03 ± 0.19 | 4.17 ± 0.31 | – | –
PPVVAHYDMSDTNSDPEVVNVDNL [C18orf25] | 5.43 ± 0.18 | 5.46 ± 0.31 | – | –
CIGLQNLKLLDELPIAKVMKDYLK [ASB7] | 2.11 ± 0.28 | 2.27 ± 0.39 | – | –
DVQLLHSWNNNDRSLNVFVKEDDK [SPSB1] | 4.88 ± 0.14 | 4.97 ± 0.18 | – | –
LAESEFESAAFSQGSRSGVSGGSR [PHTF1] | 4.83 ± 0.3 | 4.93 ± 0.32 | – | –

Sequence | protein stability index [1] | protein stability index [2] | protein stability index (treatment: DMSO, c terminus: native) | protein stability index (treatment: MLN4924 1 uM, 8 h, c terminus: native)
PPLSDPKQAKVVARRESGGRPIKP [BRD3] | 5.21 ± 0.15 | 5.12 ± 0.18 | – | –
EVVPALEPTETLLSEKEINAREES [BCL2L13] | 5.6 ± 0.13 | 5.58 ± 0.22 | – | –
AALTEALQRQAEQNPTASYYNVVL [FCHO1] | 2.3 ± 0.33 | 2.21 ± 0.33 | – | –
AWQYGPCTGITRLQRWCRAKHMGL [POLD4] | 2.15 ± 0.12 | 2.3 ± 0.42 | – | –
CGADVNVRDSDDNSPLHIAALNNH [FEM1C] | 2.9 ± 0.34 | 2.83 ± 0.24 | – | –
RLLVGLALATLRVLRGLARPEHPP [TMEM175] | 2.02 ± 0.42 | 2.35 ± 0.43 | – | –
MTTALQGQRLAVCVPAHPPPCAWA [CTBP1-DT] | 2.43 ± 0.2 | 2.56 ± 0.14 | – | –
AALSEENTGKTYFFVANKYWRYDE [MMP1] | 2.49 ± 0.37 | 2.21 ± 0.18 | – | –
TYRIENYTPDLPRADVDHAIEKAF [MMP1] | 3.4 ± 0.18 | 3.39 ± 0.31 | – | –
LPACEFEMGGSEGIVESIQIMKEG [NETO1] | 4.92 ± 0.26 | 4.74 ± 0.3 | – | –
ESTNPEKAHETLHQSLSLASSPKG [CDC25A] | 5.37 ± 0.37 | 5.45 ± 0.27 | – | –
TEAANAARHVAPEIRELLTQFET [PWWP2B] | – | – | 3.49 ± 0.21 | 3.88 ± 0.29
RTANPSKTIDLGAAAHYTGDKASP [CLINT1] | 4.99 ± 0.27 | 4.93 ± 0.083 | – | –
SVDLIKTYKHINEVYYAKKKRRAQ [DYRK1B] | 2.85 ± 0.23 | 3.13 ± 0.14 | – | –
MPDYMILQELKKLKNSNYESIQQT [PPTC7] | 2.5 ± 0.41 | 2.93 ± 0.39 | – | –
FNDPFFIVETVCIVWFSFEFVVRC [KCNA4] | 3.38 ± 0.68 | 3.45 ± 0.98 | – | –
LPCDLPKVVSRAENLSVPVIGALL [LPCAT4] | 2.29 ± 0.37 | 2.27 ± 0.31 | – | –
FKHPSIRNPVSLVVTRLVILGSGE [ADAMTS4] | – | 3.03 ± 0.97 | – | –
RYFGARAILGEQRPRQRQRVYPKC [TCF25] | 3.84 ± 0.32 | 3.58 ± 0.21 | – | –
FEEQENYFLLCDVLPEDRILREEL [ZNF277] | 3.26 ± 0.16 | 3.5 ± 0.67 | – | –
NISELKRTFLETSTDTAVTNEWEK [EPB41L3] | 4.82 ± 0.25 | 4.686 ± 0.034 | – | –
YGHELLINTLITSGADTAKCGIHS [ANKRD44] | 2.27 ± 0.38 | 1.99 ± 0.2 | – | –

Sequence | protein stability index [1] | protein stability index [2] | protein stability index (treatment: DMSO, c terminus: native) | protein stability index (treatment: MLN4924 1 uM, 8 h, c terminus: native)
KPIVPTDGKRVIVVFHCEFSSERG [CDC25A] | 2.64 ± 0.72 | 2.33 ± 0.28 | – | –
LAKALLKRTAQAIEPYITNFFNQV [PDS5B] | 2.58 ± 0.71 | 2.7 ± 0.72 | – | –
ASAPTYPSLYSSYHQGCLVNPTGN [NANOGP8] | 3.29 ± 0.19 | 3.44 ± 0.17 | – | –
SSGRRVSLHCLLDQFDKDLPVYLK [DENND6A] | 2.35 ± 0.45 | 2.4 ± 0.45 | – | –
LTTASIIQLGVTPPGYSAWIKEEA [SLC6A17] | 2.6 ± 0.23 | 2.82 ± 0.31 | – | –
LMLAGMGLHYIAFRKVKQMHLNFM [DNAJC4] | 2.45 ± 0.82 | 2.41 ± 0.33 | – | –
TIYCSLQLQALNRRFQQTQYLALP [DLX1] | 2.53 ± 0.48 | 2.42 ± 0.62 | – | –
CLTLTPRPATEAELLTCHSAEYVG [HDAC6] | 3.48 ± 0.16 | 3.43 ± 0.16 | – | –
KALNTFIDDLFAFVIKMPVMYRIG [CLPTM1] | 3.02 ± 0.53 | 2.82 ± 0.5 | – | –
TAFAPKMIVDLLSEKKTISFQGCM [OR4A15] | 2.08 ± 0.13 | 2.26 ± 0.42 | – | –
SAPGACEEPTERGNLEVGEPQSEP [FBXO34] | 5.67 ± 0.27 | 5.7 ± 0.17 | – | –
VSSVTQVEVDENAYRCGSGMQMAE [NET1] | 4.2 ± 0.3 | 4.42 ± 0.11 | – | –
MVSNPVHGLPFLPGTSFKDSTKTA [EFHC1] | 3.87 ± 0.24 | 3.97 ± 0.25 | – | –
SAKLAPHYFHSISYKIEEISPSTL [KCNK9] | 2.41 ± 0.23 | 2.31 ± 0.34 | – | –
SEIKNYNFQQPGFTSGTGHFTAMV [GLIPR2] | 2.41 ± 0.58 | 2.77 ± 0.16 | – | –
SLENTLTESEARYSSQLSQVQSLI [KRT33B] | 3.05 ± 0.23 | 3.11 ± 0.46 | – | –
MVLLIMKLDQLDQDIENALSTSSS [DLC1] | 2.69 ± 0.58 | 2.49 ± 0.45 | – | –
TITMAHLLAAREDLSKIIRTSSGT [FAM98B] | 2.31 ± 0.33 | 2.38 ± 0.4 | – | –
HMTRHLEESEKAMQERVQRLEAAR [LRRC45] | 5.15 ± 0.06 | 5.06 ± 0.19 | – | –
QTKQVYDAVGMLGIEEVTYENCLQ [NLN] | 3.56 ± 0.4 | 3.73 ± 0.53 | – | –
LHREVRSTPLTATPGGRGDMKYGI [VTI1B] | 3.72 ± 0.24 | 3.67 ± 0.12 | – | –
